Measurements from article PMC10332591.
“And” between values parts separate entries of the source, which are not always exact repeats. Identical values can stand only once.

Biological target: human CD64 (FcγRI) (human) (UniProt P12314)
Test: BLI; Octet RED96; biotinylated human CD64, CD32a or CD16a loaded on streptavidin biosensors; serially diluted ARX788 drug substance in HBS-P+ buffer; global fit, Langmuir 1:1 model; for CD32a and CD16a only 3.0 seconds of the dissociation step fitted to avoid avidity effects

Chain of human CD64 (FcγRI) (human) (P12314 16-374): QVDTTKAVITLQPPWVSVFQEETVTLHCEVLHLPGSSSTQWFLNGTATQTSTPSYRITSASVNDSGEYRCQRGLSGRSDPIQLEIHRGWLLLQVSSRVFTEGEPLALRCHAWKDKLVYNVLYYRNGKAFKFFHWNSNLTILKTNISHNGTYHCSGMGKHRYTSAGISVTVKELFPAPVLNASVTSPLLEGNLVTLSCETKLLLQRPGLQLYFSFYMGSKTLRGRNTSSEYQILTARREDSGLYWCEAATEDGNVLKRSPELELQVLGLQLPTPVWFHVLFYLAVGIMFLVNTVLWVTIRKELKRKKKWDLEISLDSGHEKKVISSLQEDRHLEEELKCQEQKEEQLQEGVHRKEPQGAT

With ARX788 (antibody) the KD ratio (Sample/RS) was 0.98 and 0.89 and 1.
